{
  "source": "paper PMC10681232",
  "key": {"[1]": {"target": "Flag-tagged Atlantic halibut Aqp1ab1 wild-type canonical channel (Flag-HhAqp1ab1-WT) (Atlantic halibut (Hippoglossus hippoglossus))"}, "[2]": {"target": "Flag-tagged Senegalese sole Aqp1ab2 wild-type canonical channel (Flag-SsAqp1ab2-WT) (Senegalese sole (Solea senegalensis))"}},
  "data": [
    {"substance": "HA-tagged Atlantic halibut Aqp1ab1 splice variant 1 (HA-HhAqp1ab1_v1)", "values": [
      {"measurement": "inhibition of osmotic water permeability (Pf) of X. laevis oocytes coexpressing HhAqp1ab1 v1 and HhAqp1ab1-WT in ratios from 0.05 to 50, untagged forms, with respect to the canonical channel only", "setting": "[1]", "value": 94, "unit": "%"}
    ]},
    {"substance": "HA-tagged Senegalese sole Aqp1ab2 splice variant 2 (HA-SsAqp1ab2_v2) (natural protein)", "values": [
      {"measurement": "inhibition of osmotic water permeability (Pf) of X. laevis oocytes expressing SsAqp1ab2-WT plus YwhazLb, treated with FSK, after injecting equal cRNA amounts of WT and SsAqp1ab2 v2, untagged forms", "setting": "[2]", "value": 84, "unit": "%"}
    ]}
  ]
}
